The values below come from PMC3361065 (Biochemistry, 2012).

The Kd is the free concentration of one partner at which half of the binding sites on the other are occupied at equilibrium, for simple one-to-one binding.

What all share (experiment): EMSA
(Mobility shift assays separate free from complexed probe on a gel.)

Data set [1] deals with scMtRNAP ΔHNG;MTF1 (yeast mitochondrial transcription factor) (Saccharomyces cerevisiae?;Saccharomyces …, UniProt P13433;P14908 1-640+644-1351;1-341, internal_change|).
Data set [2] has as its target scMtRNAP ΔNGS;MTF1 (yeast mitochondrial transcription factor) (Saccharomyces cerevisiae?;Saccharomyces …, UniProt P13433;P14908 1-641+645-1351;1-341, internal_change|).
Data set [3] addresses yeast mitochondrial RNA polymerase (scMtRNAP) WT;MTF1 (yeast mitochondrial transcription factor) (Saccharomyces cerevisiae?;Saccharomyces …, UniProt P13433;P14908 1-1351;1-341, |).
Data set [4] has as its target T1, yeast mitochondrial RNA polymerase (scMtRNAP) WT (UniProt P13433 1-1351).
T1 sequence: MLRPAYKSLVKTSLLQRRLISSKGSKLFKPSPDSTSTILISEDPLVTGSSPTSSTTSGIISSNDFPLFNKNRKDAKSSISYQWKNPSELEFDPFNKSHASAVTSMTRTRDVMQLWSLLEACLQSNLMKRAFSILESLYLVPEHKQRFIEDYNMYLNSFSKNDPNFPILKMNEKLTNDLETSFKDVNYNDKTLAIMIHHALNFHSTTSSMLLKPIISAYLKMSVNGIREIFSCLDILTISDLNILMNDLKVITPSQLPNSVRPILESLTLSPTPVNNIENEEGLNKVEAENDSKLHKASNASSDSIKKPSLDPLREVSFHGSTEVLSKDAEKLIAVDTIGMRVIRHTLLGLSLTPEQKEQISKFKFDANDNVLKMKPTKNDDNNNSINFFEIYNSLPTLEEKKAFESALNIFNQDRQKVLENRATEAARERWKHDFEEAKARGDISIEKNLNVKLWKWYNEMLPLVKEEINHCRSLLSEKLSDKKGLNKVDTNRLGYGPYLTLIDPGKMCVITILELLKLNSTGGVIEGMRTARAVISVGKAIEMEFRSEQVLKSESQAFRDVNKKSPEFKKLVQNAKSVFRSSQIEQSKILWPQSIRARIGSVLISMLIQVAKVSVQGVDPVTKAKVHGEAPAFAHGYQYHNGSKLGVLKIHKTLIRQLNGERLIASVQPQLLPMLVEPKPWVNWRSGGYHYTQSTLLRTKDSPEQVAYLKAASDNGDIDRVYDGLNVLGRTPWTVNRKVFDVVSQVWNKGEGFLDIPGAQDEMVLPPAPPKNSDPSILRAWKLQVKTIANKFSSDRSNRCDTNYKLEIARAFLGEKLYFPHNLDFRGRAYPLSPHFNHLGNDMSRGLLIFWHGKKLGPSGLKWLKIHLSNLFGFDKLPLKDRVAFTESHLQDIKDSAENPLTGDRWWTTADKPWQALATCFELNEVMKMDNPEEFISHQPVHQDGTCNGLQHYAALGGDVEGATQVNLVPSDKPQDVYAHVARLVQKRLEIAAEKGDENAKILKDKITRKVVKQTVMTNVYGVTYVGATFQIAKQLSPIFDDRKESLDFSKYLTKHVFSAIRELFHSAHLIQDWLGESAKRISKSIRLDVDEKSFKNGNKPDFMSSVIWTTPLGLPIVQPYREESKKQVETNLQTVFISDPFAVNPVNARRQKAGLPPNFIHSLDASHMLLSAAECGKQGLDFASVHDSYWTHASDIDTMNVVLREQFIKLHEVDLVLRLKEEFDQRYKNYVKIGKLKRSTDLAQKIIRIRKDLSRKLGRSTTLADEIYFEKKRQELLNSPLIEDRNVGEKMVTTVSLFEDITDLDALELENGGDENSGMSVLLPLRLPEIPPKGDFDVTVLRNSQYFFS

In a further data set the target is T2, scMtRNAP ΔHNG (UniProt P13433 1-640+644-1351, internal_change).
T2 sequence: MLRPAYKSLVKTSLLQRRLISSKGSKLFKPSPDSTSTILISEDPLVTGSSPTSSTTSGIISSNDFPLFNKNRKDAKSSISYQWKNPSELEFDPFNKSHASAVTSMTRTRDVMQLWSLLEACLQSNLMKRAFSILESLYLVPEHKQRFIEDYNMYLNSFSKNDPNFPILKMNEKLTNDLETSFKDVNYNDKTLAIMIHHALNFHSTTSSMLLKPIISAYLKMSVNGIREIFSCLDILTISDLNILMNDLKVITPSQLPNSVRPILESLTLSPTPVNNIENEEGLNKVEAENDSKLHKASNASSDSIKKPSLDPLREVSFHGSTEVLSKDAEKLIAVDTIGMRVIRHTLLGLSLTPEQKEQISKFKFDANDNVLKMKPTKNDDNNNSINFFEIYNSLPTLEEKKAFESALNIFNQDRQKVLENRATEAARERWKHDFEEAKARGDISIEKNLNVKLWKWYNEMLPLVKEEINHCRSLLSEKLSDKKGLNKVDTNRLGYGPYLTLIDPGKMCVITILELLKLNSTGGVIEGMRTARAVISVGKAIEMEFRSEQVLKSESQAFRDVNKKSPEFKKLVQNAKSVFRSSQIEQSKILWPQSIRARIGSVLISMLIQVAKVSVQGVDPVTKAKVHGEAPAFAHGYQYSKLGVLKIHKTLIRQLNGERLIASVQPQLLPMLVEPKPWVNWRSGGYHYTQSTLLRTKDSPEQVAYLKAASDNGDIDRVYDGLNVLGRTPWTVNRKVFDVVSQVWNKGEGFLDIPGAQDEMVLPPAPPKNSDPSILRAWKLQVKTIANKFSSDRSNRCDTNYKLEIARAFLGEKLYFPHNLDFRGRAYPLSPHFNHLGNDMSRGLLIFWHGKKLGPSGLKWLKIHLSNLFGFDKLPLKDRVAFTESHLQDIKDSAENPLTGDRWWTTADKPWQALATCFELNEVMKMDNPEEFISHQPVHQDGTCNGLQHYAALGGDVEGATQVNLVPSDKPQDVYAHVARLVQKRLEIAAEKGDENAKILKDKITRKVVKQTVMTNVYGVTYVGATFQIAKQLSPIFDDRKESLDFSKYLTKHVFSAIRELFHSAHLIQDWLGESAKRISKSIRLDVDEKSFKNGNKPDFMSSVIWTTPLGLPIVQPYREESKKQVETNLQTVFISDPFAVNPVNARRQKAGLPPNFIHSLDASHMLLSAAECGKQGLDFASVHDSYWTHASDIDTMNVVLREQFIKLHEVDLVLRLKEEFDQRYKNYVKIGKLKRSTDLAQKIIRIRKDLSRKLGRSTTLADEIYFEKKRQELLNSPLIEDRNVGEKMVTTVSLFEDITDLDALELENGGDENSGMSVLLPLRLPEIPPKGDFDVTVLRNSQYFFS

Sequence of scMtRNAP ΔNGS;MTF1 (yeast mitochondrial transcription factor) (P14908 whole entry, stated change not applied, one chain of several): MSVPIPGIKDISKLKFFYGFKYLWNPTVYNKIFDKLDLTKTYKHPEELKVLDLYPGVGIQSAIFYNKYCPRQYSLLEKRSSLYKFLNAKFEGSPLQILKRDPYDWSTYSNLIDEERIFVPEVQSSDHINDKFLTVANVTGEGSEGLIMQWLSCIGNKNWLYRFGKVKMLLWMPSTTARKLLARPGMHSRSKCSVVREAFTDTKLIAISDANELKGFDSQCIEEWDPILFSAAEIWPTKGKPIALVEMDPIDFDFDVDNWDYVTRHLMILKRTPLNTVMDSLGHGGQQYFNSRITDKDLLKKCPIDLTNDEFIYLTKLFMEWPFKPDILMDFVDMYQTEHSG

B1: 33 bp Bubble (pre-melted) promoter (dsDNA)
DNA 1: CGCGTAAAACTATTCTTTATTACTTATATCGCG
DNA 2: CGCGATATGCAGCTTAAAGAATAGTTTTACGCG
B1: the Kd in data set [1] worked out at 340 nM; in data set [2], 430 nM; in data set [3] it was 160 nM; in data set [4], 4300 nM; in the data set with scMtRNAP ΔHNG it was 5300 nM.
